Test results from US20060251726.

Assays:
[1] = test system: T1, non-stearate Fus1 peptide
T1 sequence: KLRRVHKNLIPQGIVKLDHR

[2] = test system: T2, stearate-Fus1 peptide (Stearic acid-KLRRVHKNLIPQGIVKLDHR)
T2 sequence: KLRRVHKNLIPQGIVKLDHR

truncated commercial (New England Bio-Labs) cAbl tyrosine kinase (45 kD) containing only the SH2 and SH1 domains
GST-Crk phosphorylation by the 45 kD Abl tyrosine kinase, 0-60 uM peptide [1]: Non-stearic acid modified Fus1 peptide did not inhibit Abl tyrosine kinase activity | phosphorylation of Gst-Crk by commercial Abl [1]: Non-stearate FUS1 peptide did not inhibit phosphorylation of Gst-Crk by commercial Abl | Abl tyrosine kinase assay using bacterially purified Abl kinase (GST-CRK phosphorylation) [2]: This peptide was strongly inhibitory in an Abl tyrosine kinase assay using bacterially purified Abl kinase | c-Abl tyrosine phosphorylation of GST-CRK (32P, SDS-PAGE, phosphoimager; 10-55 µM peptide) [2]: the peptide inhibits c-Abl tyrosine phosphorylation of GST-CRK
